Results: PMC2822101 (Journal of molecular biology, 2009)

B1: aggregated glucose-6-phosphate dehydrogenase (G6PDH) from Leuconostoc mesenteroides (enzyme, UniProt P11411 1-486, looked up)
chain: MVSEIKTLVTFFGGTGDLAKRKLYPSVFNLYKKGYLQKHFAIVGTARQALNDDEFKQLVRDSIKDFTDDQAQAEAFIEHFSYRAHDVTDAASYAVLKEAIEEAADKFDIDGNRIFYMSVAPRFFGTIAKYLKSEGLLADTGYNRLMIEKPFGTSYDTAAELQNDLENAFDDNQLFRIDHYLGKEMVQNIAALRFGNPIFDAAWNKDYIKNVQVTLSEVLGVEERAGYYDTAGALLDMIQNHTMQIVGWLAMEKPESFTDKDIRAAKNAAFNALKIYDEAEVNKYFVRAQYGAGDSADFKPYLEELDVPADSKNNTFIAGELQFDLPRWEGVPFYVRSGKRLAAKQTRVDIVFKAGTFNFGSEQEAQEAVLSIIIDPKGAIELKLNAKSVEDAFNTRTIDLGWTVSDEDKKNTPEPYERMIHDTMNGDGSNFADWNGVSIAWKFVDAISAVYTADKAPLETYKSGSMGPEASDKLLAANGDAWVFKG

Legend:
Test in all cases: retention with aggregates on a 0.1-μm filter, SDS-PAGE
[1] = biological target: B1
[2] = biological target: ClpB95(E279Q/E678Q) (E. coli, UniProt P63284 1-857, E279Q | E678Q)
[3] = biological target: DnaK (UniProt P0A6Y8 1-638)

Row | binding result [1] | binding result [2] | binding result [3] | Binder
1 | binds |  |  | DnaJ (natural protein, UniProt P08622 1-376, looked up) MAKQDYYEILGVSKTAEEREIRKAYKRLAMKYHPDRNQGDKEAEAKFKEIKEAYEVLTDSQKRAAYDQYGHAAFEQGGMGGGGFGGGADFSDIFGDVFGDIFGGGRGRQRAARGADLRYNMELTLEEAVRGVTKEIRIPTLEECDVCHGSGAKPGTQPQTCPTCHGSGQVQMRQGFFAVQQTCPHCQGRGTLIKDPCNKCHGHGRVERSKTLSVKIPAGVDTGDRIRLAGEGEAGEHGAPAGDLYVQVQVKQHPIFEREGNNLYCEVPINFAMAALGGEIEVPTLDGRVKLKVPGETQTGKLFRMRGKGVKSVRGGAQGDLLCRVVVETPVGLNERQKQLLQELQESFGGPTGEHNSPRSKSFFDGVKKFFDDLTR
2 |  | binds | binds | B1
